From patent publication US20020176853A1

Target: mouse pro-IL-1β (mouse) (UniProt P10749)
Assay: cell-based or functional assay

Chain of UniProt P10749 (P10749 whole entry): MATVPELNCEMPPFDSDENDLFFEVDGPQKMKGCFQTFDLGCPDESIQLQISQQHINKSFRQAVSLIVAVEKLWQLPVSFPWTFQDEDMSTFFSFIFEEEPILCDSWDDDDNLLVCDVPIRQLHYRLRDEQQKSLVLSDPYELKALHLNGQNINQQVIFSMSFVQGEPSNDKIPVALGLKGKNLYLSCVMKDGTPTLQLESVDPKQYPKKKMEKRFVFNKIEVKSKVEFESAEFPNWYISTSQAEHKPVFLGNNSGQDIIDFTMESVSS

pro-caspase-1 (full-length, wild-type) (from UniProt P29466 1-404) (enzyme)
secretion of mature IL-1β into the culture medium (ELISA), COS-7 cells: 80 to 250 pg/mL
